In the supplement of paper PMC9876800:

Test system: peptide library, one residue held at a place counted from the S/T acceptor
Experiment: relative phosphorylation of the sub-library (ratio to the mean residue at this position); higher = residue favoured
Details: human
Outline: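 Purified recombinant kinases were reacted in 384-well plates with biotinylated degenerate peptide sub-libraries, each having one residue fixed at one position around a central Ser/Thr. The reaction mix contained 50 μM peptide plus 50 μM ATP spiked with γ-32P-ATP and ran for 90 min under kinase-specific conditions. Relative sub-library phosphorylation, taken from densitometry of phosphorimaged streptavidin membrane spots, is a ratio to the mean residue at that position.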

Sequence of NEK7, construct: Full length (Q8TDX7 whole entry, looked up): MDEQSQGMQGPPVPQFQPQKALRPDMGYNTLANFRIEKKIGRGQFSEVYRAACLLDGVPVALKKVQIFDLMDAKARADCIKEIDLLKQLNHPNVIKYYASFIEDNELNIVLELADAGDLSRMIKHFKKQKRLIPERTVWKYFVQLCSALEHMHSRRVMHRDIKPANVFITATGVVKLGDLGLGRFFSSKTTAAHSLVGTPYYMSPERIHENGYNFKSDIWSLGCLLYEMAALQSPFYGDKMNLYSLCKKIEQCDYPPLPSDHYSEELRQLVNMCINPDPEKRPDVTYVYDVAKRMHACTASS
Sequence of PRKAA2, construct: Full length (P54646 whole entry, looked up): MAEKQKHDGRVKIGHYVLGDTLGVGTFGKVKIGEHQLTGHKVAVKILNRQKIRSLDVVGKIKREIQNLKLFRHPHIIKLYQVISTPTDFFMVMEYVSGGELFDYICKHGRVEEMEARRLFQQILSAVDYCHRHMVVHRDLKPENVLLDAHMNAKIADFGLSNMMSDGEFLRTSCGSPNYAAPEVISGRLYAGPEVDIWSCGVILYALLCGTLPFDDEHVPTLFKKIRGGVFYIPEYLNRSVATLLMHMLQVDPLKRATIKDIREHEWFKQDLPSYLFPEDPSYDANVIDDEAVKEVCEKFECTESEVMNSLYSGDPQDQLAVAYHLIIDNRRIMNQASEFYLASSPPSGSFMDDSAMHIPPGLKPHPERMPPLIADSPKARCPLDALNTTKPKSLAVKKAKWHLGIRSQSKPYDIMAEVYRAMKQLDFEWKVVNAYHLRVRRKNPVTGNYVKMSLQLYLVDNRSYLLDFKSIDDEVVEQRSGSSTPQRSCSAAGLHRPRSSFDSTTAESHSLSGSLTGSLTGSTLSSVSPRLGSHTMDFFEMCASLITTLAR

PRKAA2, construct: Full length (from UniProt P54646)
relative phosphorylation
Details	at +1	at +2	at +3	at +4	at -1	at -2	at -3	at -4	at -5
A fixed	1.05	1.53	0.803	0.597	1.14	1.34	0.699	1.19	0.889
D fixed	0.54	0.575	1.53	0.614	0.593	0.42	0.258	0.419	0.336
E fixed	0.708	0.492	0.805	0.454	0.495	0.427	0.368	0.546	0.308
F fixed	1.88	0.855	1.01	1.27	0.734	0.655	0.4	0.67	1.3
G fixed	0.711	0.724	0.933	0.637	1.38	0.933	0.739	1.13	0.815
H fixed	1.15	1.48	2.39	0.747	1.12	1.18	1.26	1.26	0.8
I fixed	0.565	1.19	0.531	2.12	0.339	0.925	0.335	0.577	1.42
K fixed	1.01	0.689	1.01	0.777	1.9	1.62	2.75	2.22	1.27
L fixed	0.814	1.29	0.677	2.7	0.714	0.548	0.398	0.692	1.64
M fixed	1.33	0.833	0.693	2.04	0.978	0.575	0.473	0.928	1.51
N fixed	0.942	1.18	1.69	0.864	1.16	1.93	0.821	0.801	0.684
P fixed	0.269	1.37	0.41	0.789	1.51	0.826	0.991	1.31	0.964
Q fixed	1.41	1.03	0.978	0.806	1.22	0.981	0.851	0.874	0.825
R fixed	1.23	0.652	1.06	0.618	1.58	1.84	5.14	2.31	1.89
V fixed	0.779	1.34	0.506	0.876	0.49	1.47	0.365	0.7	0.769
W fixed	1.35	0.966	1.16	0.617	0.73	0.661	0.559	0.666	0.723
Y fixed	1.27	0.806	0.808	0.479	0.903	0.676	0.596	0.713	0.854
pThr fixed	0.69	0.503	0.35	0.709	0.324	0.504	0.49	0.644	0.588
pTyr fixed	0.649	0.452	0.57	0.529	0.607	0.533	0.471	0.475	0.696

NEK7, construct: Full length (from UniProt Q8TDX7)
relative phosphorylation
Details	at +1	at +2	at +3	at +4	at -1	at -2	at -3	at -4	at -5
A fixed	0.653	1.05	0.923	0.86	1.05	1.12	0.975	1.02	1.07
D fixed	0.327	0.61	0.66	0.722	1.29	2.31	0.65	1.91	1.83
E fixed	0.267	0.376	0.597	0.747	1.42	1.8	0.583	1.28	1.43
F fixed	1.54	0.717	1.21	0.846	0.646	0.87	1.94	0.839	0.989
G fixed	0.827	1.12	1.28	1.18	0.713	1.4	0.853	1.05	0.972
H fixed	1.16	1.38	1.21	1.11	1.12	1.3	0.755	1.03	1.06
I fixed	1.28	0.812	0.957	0.919	0.569	0.433	0.494	0.647	0.831
K fixed	0.588	1.47	1.24	1.3	1.34	0.625	0.446	0.82	0.842
L fixed	1.18	0.549	1.1	0.895	1.02	0.718	2.39	0.832	0.771
M fixed	1.78	0.693	0.899	0.948	1.03	0.973	1.46	0.823	0.703
N fixed	1	1.63	0.833	0.907	1.22	1.47	0.705	1.35	1.15
P fixed	0.242	0.691	0.703	1.09	0.234	0.356	1.3	0.918	0.886
Q fixed	1.33	0.933	0.813	0.986	1.52	0.951	0.628	0.889	0.938
R fixed	0.865	2.1	1.08	1.16	1.21	0.626	0.652	0.959	0.878
V fixed	1.05	0.905	0.889	0.846	0.901	0.372	0.538	0.613	0.8
W fixed	1.47	0.94	1.58	1.46	0.908	0.859	1.4	1.23	1.1
Y fixed	1.44	1.02	1.02	1.02	0.796	0.822	1.23	0.78	0.754
pThr fixed	0.701	0.607	0.62	0.842	0.624	1	0.973	1.15	0.979
pTyr fixed	0.816	0.62	0.836	0.681	1.68	1.6	1.12	0.861	1.12
